According to patent US20040063635A1:

Biological target: HSA/hEPO (83.5 Kd) (human)
Assay: double-antibody sandwich ELISA (R&D Systems EPO kit), against the recombinant human EPO standard

Work on “anti-EPO antibodies of the EPO ELISA kit from R&D Systems (tool reagent)” yielded an activity compared with the standard (of the activity of the EPO standard) of 0.1.
